Measurements: IntAct's records for PubMed 21295698

Key:
ogt1_human OGT [1] = biological target: ogt1_human OGT (UniProt O15294)
ogt1_human OGT [2] = biological target: ogt1_human OGT (UniProt O15294); remark: listed apart in the source

Chain of UniProt O15294 (O15294 whole entry): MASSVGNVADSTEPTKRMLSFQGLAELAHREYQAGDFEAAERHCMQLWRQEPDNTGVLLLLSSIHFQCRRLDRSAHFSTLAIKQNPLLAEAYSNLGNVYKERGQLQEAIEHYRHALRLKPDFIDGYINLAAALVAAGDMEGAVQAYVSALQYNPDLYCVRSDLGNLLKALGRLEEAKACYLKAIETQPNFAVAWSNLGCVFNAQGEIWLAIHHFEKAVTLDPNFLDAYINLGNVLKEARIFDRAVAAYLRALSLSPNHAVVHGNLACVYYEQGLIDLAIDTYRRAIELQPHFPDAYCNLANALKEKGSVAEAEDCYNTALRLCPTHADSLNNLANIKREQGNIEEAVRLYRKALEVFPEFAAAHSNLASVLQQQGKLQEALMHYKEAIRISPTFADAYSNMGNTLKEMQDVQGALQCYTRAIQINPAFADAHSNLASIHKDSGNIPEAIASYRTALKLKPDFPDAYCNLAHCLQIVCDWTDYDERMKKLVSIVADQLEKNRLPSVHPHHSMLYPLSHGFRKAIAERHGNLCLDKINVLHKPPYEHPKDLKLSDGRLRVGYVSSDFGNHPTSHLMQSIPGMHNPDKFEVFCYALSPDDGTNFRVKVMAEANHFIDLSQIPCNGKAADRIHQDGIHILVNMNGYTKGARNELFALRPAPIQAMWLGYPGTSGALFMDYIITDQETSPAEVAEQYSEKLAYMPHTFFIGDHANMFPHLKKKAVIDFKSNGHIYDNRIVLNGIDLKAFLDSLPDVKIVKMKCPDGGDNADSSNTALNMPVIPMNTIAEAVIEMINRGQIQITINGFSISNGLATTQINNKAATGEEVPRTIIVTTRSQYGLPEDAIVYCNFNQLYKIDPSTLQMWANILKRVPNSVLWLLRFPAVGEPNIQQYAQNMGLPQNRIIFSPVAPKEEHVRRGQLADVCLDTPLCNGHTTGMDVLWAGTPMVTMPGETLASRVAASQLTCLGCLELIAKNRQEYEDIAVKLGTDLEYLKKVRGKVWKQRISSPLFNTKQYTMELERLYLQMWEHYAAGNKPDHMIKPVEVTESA

| Substance | effect of a mutation on the interaction (ogt1_human OGT [1]) | effect of a mutation on the interaction (ogt1_human OGT [2]) |
| --- | --- | --- |
| Host cell factor 1 (Homo sapiens), P51610 E1081A | disrupting interaction | increasing interaction |
| Host cell factor 1 (Homo sapiens), P51610 H1083A | decreasing interaction | – |
| Host cell factor 1 (Homo sapiens), P51610 N1077A | decreasing interaction | – |
| Host cell factor 1 (Homo sapiens), P51610 P1078A | decreasing interaction | – |
| Host cell factor 1 (Homo sapiens), P51610 T1085A | decreasing interaction | – |
| Host cell factor 1 (Homo sapiens), P51610 T1087A | disrupting interaction | – |
| Host cell factor 1 (Homo sapiens), P51610 T1092A | disrupting interaction | – |

Other lines, results leading:

| effect of a mutation on the interaction (ogt1_human OGT [1]) | effect of a mutation on the interaction (ogt1_human OGT [2]) | Substance |
| --- | --- | --- |
| decreasing interaction | – | Host cell factor 1 (Homo sapiens), P51610 C1075A |
| decreasing interaction | – | Host cell factor 1 (Homo sapiens), P51610 C1080A |
| decreasing interaction | – | Host cell factor 1 (Homo sapiens), P51610 P1079A |
| decreasing interaction | – | Host cell factor 1 (Homo sapiens), P51610 T1082A |
| disrupting interaction | – | Host cell factor 1 (Homo sapiens), P51610 T1088A |
| disrupting interaction | – | Host cell factor 1 (Homo sapiens), P51610 T1090A |
